Drawing on article PMC8391295, “Unraveling Human AQP5-PIP Molecular Interaction and Effect on AQP5 Salivary Glands Localization in SS Patients” (Cells, 2021), this text covers Kd for one molecule.

This test has as its target T1, full-length His-tagged AQP5 (human, UniProt P55064 1-265).
T1 construct: aquaporin-5 (AQP5), human, full-length construct with His-tag; also called FL-AQP5; full-length AQP5; source: Pichia pastoris X-33, purified (solubilised in NG, Resource S, Superdex 200)
The test is described as follows: MST; labeled PIP at 42 nM, 1:1 dilution series of AQP5; 20 mM phosphate buffer pH 7.5, 100 mM NaCl, 0.8% NG; Hill equation fit on total monomeric AQP5 concentration; triplicates. The following applies: both partners purified.

T1 sequence (P55064 whole entry): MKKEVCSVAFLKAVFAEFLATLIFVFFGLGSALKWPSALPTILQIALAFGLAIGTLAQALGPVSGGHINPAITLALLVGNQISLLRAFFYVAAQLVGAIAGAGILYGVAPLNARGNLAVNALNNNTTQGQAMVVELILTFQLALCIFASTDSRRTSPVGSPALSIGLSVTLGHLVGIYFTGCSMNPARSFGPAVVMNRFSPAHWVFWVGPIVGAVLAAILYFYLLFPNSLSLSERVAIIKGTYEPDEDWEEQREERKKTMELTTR

B1: mature C-terminal His-tag PIP (prolactin-inducible protein, residues 29-146) (natural protein, human, UniProt P12273 29-146, looked up)
chain: QDNTRKIIIKNFDIPKSVRPNDEVTAVLAVQTELKECMVVKTYLISSIPLQGAFNYKYTACLCDDNPKTFYWDFYTNRTVQIAAVVDVIRELGICPDDAAVIPIKNNRFYTIEILKVE
modifications: non homogeneously glycosylated; labeled with an amine-reactive dye (Monolith NT Protein RED-NHS Labeling Kit) in the MST experiments
notes: also called recombinant PIP; purified PIP; source: Pichia pastoris, secreted into the media, purified (HisTrap HP, Superdex 200); not shown: His6 (thrombin-cleavable), C-terminal, kept
Molecule B1 returned a Kd of 570 nM.

By Kd is commonly meant the concentration at which binding is half-saturated. Low values mean tighter binding, high ones weaker binding.
